Assay results as given in publication PMC13042984.

Molecular target: RFX5 DBD (Homo sapiens) (UniProt P48382)
Experiment: EMSA
Conditions: KD values only in figure; hmC/mC CpG; EMSA: 20 mM HEPES, 30 mM KCl, 1 mM EDTA, 1 mM (NH4)2SO4, 0.2% Tween 20, 1 mM DTT, 5 uM dA:dT competitor, 2 nM DNA, 20 min, 21 C (pH not stated); pulldown: 50 mM

RFX5 DBD (Homo sapiens), sequence (P48382 75-168): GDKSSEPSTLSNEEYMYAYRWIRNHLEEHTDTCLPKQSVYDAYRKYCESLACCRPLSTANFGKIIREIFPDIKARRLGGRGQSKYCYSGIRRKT

X-box 1 probe hmC/mC
binding signal (fold weaker than mC/mC (KD)): 2.5
